# Data published in patent publication US20240343793A1 (TILLOTTS PHARMA, published 2024).
# Where a chain is given by its changes, count along the chain named. Names and notes keep the numbering of the source.
# B1: Ab-wt (antibody, human IgG1, kappa)
# heavy: not shown
# light: DIQMTQSPSSLSASVGDRVTIKCQASQSIFSGLAWYQQKPGKAPKLLIYGASKLASGVPSRFSGSGSGTEFTLTISGLQPADFATYYCQSYYYSSSSSDGSYAFGGGTKLTVLGRTVAAPSVFIFPPSDEQLKSGTASVVCLLNNFYPREAKVQWKVDNALQSGNSQESVTEQDSKDSTYSLSSTLTLSKADYEKHKVYACEVTHQGLSSPVTKSFNRGEC
# notes: Human IgG1 anti-TNFα antibody with wild-type Fc; also called parent antibody; wild-type antibody
# B2: Ab-REW (antibody, human IgG1, kappa)
# heavy: EVQLVESGGGLVQPGGSLRLSCKASGIDFNNYGIGWVRQAPGKGLEWITYIYPGFAITNFANSVKGRFTISSDNSKNTVYLQMNSLRAEDTAVYYCARDPVYATSSGYFDLWGQGTLVTVSSASTKGPSVFPLAPSSKSTSGGTAALGCLVKDYFPEPVTVSWNSGALTSGVHTFPAVLQSSGLYSLSSVVTVPSSSLGTQTYICNVNHKPSNTKVDKKVEPKSCDKTHTCPPCPAPELLGGPSVFLFPPKPKDTLMISRTPEVTCVVVDVSHEDPEVKFNWYVDGVEVHNAKTKPREEQYNSTYRVVSVLTVLHRDWLNGKEYKCKVSNKALPAPIEKTISKAKGQPREPQVYTLPPSREEMTKNQVSLTCLVKGFYPSDIAVEWESNGQPENNYKTTPPVLDSDGSFFLYSKLTVDKSRWQQGNVFSCSVEHEALHWHYTQKSLSLSPGK
# light: B1 light
# notes: IgG1; also called REW containing variant; Q311R/M428E/N434W variant of Ab-wt
# B3: Ab-REW-2FF (antibody, human IgG1, kappa)
# heavy: B2 heavy
# light: B1 light
# modifications: N-glycans at N297 (EU numbering) with greatly reduced fucose (13% fucosylated), made with 2-deoxy-2-fluoro-fucose (2FF) in the culture medium
# notes: IgG1; also called non-fucosylated variant of Ab-REW
# B4: infliximab (antibody)
# chain 1: not shown
# chain 2: DILLTQSPAILSVSPGERVSFSCRASQFVGSSIHWYQQRTNGSPRLLIKYASESMSGIPSRFSGSGSGTDFTLSINTVESEDIADYYCQQSHSWPFTFGSGTNLEVKRTVAAPSVFIFPPSDEQLKSGTASVVCLLNNFYPREAKVQWKVDNALQSGNSQESVTEQDSKDSTYSLSSTLTLSKADYEKHKVYACEVTHQGLSSPVTKSFNRGEC
# Experiments:
# human TNFα [1] = molecular target: T1, human TNFα (human, UniProt P01375 77-233); assay: SPR (Biacore), antibody captured on Protein A, TNFα as analyte, single cycle kinetics, 25 C
# T1 construct: also called recombinant TNFα
# T1 sequence (P01375 77-233 limits assumed): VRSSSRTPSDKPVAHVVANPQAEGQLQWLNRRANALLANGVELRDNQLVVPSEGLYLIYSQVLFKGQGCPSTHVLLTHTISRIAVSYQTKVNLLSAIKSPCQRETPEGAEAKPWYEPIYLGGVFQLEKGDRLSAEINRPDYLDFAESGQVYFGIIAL
# Experimental: Affinity to TNFα was measured by Biacore. A CM5 chip was prepared using standard amine immobilisation Biacore procedures. Upon insertion of a CM5 chip the system was primed and then normalised with BIA-normalising solution (Biacore Preventative Maintenance Kit 2). The chip was added to the system with PBS-T running buffer; prior to immobilisation the chip surface was primed with three injections of 50 mM NaOH. Protein A was immobilised on the chip surface. For this, the protein was diluted to 5 μg/mL into 10 mM acetate buffer at pH 4.5 and injected so to generate a bound response of ˜1000 RU's in all 4 flow cells. To remove non-covalently bound material from all the chip flow cells, three 15 second 50 mM NaOH washes were performed. On the Protein A chip, antibody was captured in flow cells 2 and 4, with flow cells 1 and 3 used for reference subtraction. The trial antibodies were diluted in PBS-T to 10 nM and 2.5-7.5 uL injected to obtain 120 RU of captured antibody. […] For each single cycle analysis cycle a titration of 5 analyte concentrations were injected over the ligand and then the dissociation of the complex was measured. The surface was regenerated using glycine pH 1.7. A double referencing method was employed in which data from the ligand bound capture surface (fc 2 and 4) were subtracted from the references surfaces where no ligand was captured (fc 1 and 3 respectively). Blank injections of buffer were run every 3-4 cycles and then subtracted from analyte injection cycles, to correct for small changes in the ligand capture surface. Repeat injections of analyte at the start and end of each analytical run were used to check for sample degradation, or changes in the instrument performance. All analysis was performed at 25° C. and the sample rack was incubated at 10° C. during experimental runs. Each experiment was run at least three times. A 1-to-1 binding model was used to fit the resulting kinetic data.
# CD32b = molecular target: T2, CD32b (UniProt P31994 46-217); assay: SPR (Biacore), His-tagged FcγR captured on anti-His chip, antibody as analyte
# T2 construct: His-tagged; also called Fcγ receptor CD32b
# T2 sequence (looked up): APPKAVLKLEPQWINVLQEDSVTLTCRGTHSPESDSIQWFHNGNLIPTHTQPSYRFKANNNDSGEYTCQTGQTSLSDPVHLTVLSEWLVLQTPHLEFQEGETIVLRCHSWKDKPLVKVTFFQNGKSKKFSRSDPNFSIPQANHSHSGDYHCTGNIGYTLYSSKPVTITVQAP
# Experimental: (§1) Affinity to FcγRs was measured by Biacore. A CM5 chip was prepared using standard amine immobilisation Biacore procedures. Upon insertion of a CM5 chip the system was primed and then normalised with BIA-normalizing solution (Biacore Preventative Maintenance Kit 2). The chip was added to the system with Phosphate Buffered Saline Tween-20 (PBS-T) running buffer; prior to immobilisation the chip surface was primed with three injections of 50 mM NaOH. FcγRs were immobilised on the chip surface using a His-tag capture system. The anti-His tag chip was prepared according to the Biacore kit instructions, with ˜12000 RU's of the antibody deposited on all 4 flow cells. To remove non-covalently bound material from all the chip flow cells, three 30 second 10 mM glycine pH 1.5 washes were performed. The Fcγ receptors were diluted in PBS-T to a range of 0.5-2 μg/mL, with 2.5-5.0 μL injected onto the chip generating capture levels between 60 and 200 RU's. Antibodies were diluted into PBS-T prior to analysis. Single cycle kinetics were used to estimate the steady state affinity. For each single cycle analysis cycle a titration of 5 antibody concentrations were injected over the FcγR ligand and then the dissociation of the complex was measured. The surface was regenerated using the recommended solution, 10 mM glycine pH 1.5 for the anti-His capture surface. A double referencing method was employed in which data from the ligand bound capture surface (fc 2 and 4) were subtracted from the references surfaces where no ligand was captured (fc 1 and 3 respectively). Blank injections of buffer were run for every antibody titration cycle and then subtracted from analyte injection cycles, to correct for small changes in the ligand capture surface. All analysis was performed at 25° C. and the sample rack was incubated at 10° C. during experimental runs. Each experiment was run at least three times.
# CD64 = molecular target: T3, CD64 (UniProt P12314 16-288, limits assumed); assay: as above
# T3 construct: His-tagged (captured on an anti-His chip); also called Fcγ receptor CD64
# T3 sequence (P12314 16-288 limits assumed): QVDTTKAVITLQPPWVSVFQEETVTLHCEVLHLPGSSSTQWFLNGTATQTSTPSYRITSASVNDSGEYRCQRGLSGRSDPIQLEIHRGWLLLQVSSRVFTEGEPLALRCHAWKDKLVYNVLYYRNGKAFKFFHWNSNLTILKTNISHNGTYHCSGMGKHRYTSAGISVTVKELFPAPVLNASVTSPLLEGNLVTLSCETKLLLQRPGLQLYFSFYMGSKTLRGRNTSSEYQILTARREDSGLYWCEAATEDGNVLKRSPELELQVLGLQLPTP
# Experimental: as §1
# CD32a(H) = molecular target: T4, CD32a(H) (UniProt P12318 36-218); assay: as above
# T4 construct: His-tagged; also called Fcγ receptor CD32a(H)
# T4 sequence (looked up): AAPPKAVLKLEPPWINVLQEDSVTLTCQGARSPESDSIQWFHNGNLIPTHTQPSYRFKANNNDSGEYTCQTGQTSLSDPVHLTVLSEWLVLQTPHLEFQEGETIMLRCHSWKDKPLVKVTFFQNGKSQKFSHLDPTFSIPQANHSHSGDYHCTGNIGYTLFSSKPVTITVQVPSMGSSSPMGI
# Experimental: as §1
# [2] = molecular target: T5, monomeric His-tagged human FcRn (human, UniProt P55899 24-297; P61769 21-119); assay: SPR (Biacore 3000), antibody amine-coupled, monomeric His-tagged hFcRn injected, pH 6.0; pH 6.0
# T5 construct: also called hFcRn
# T5 sequence (P55899 24-297 limits assumed, chain 1 of 2): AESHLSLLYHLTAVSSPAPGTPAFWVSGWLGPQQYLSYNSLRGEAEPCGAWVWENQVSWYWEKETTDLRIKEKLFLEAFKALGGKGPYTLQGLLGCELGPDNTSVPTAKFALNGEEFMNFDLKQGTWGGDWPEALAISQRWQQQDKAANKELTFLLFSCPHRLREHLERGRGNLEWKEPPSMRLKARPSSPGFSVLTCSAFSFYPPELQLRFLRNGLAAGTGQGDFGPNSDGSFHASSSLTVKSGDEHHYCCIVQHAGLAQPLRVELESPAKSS
# T5 sequence (P61769 21-119 limits assumed, chain 2 of 2): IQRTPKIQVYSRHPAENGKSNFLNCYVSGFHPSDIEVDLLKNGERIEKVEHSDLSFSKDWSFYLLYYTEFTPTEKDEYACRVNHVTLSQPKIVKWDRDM
# Experimental: (§2) SPR was performed using a Biacore 3000 instrument with CM5 sensor chips coupled with anti-TNFα IgG1 antibodies (˜500 resonance units (RU)) using amine-coupling chemistry as described by the manufacturer. The coupling was performed by injecting 2.0 ug/mL of each protein in 10 mM sodium acetate, pH 4.5, using the amine-coupling kit (GE Healthcare). […] All SPR experiments were conducted at 25° C. with a flow rate of 40 ul/min. Binding data were zero-adjusted, and reference cell value subtracted. The Langmuir 1:1 ligand binding model provided by the BIAevaluation software (version 4.1) was used to determine the binding kinetics.
# CD16a(V) [3] = molecular target: T6, CD16a(V) (UniProt P08637 17-208); assay: SPR (Biacore), His-tagged FcγR captured on anti-His chip, antibody as analyte
# T6 construct: His-tagged; also called Fcγ receptor CD16a(V)
# T6 sequence (P08637 17-208 F176V limits assumed): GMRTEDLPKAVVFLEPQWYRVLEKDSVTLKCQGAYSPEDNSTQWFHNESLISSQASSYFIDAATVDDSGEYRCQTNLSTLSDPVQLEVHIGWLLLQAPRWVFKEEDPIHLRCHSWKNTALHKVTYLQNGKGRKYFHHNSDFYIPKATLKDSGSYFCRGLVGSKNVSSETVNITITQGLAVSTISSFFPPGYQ
# Experimental: as §1
# [4] = molecular target: T5, monomeric His-tagged human FcRn; assay: SPR, pH 6.0; KD against that of Ab-wt; pH 6.0; fold change from wt
# Experimental: as §2
# [5] = molecular target: T5, monomeric His-tagged human FcRn; assay: SPR, pH 6.0; KD against that of IFX; pH 6.0; fold change from IFX
# Experimental: as §2
# human C1q = human C1q (human, UniProt P02745 23-245; P02746 28-253; P02747 29-245); assay: ELISA: antibody titrated onto plate-coated human TNFα, then human C1q at 0.5 µg/mL, detected with rabbit anti-human C1q and HRP anti-rabbit IgG, absorbance 620 nm
# Sequence of human C1q (P02745 23-245, chain 1 of 3): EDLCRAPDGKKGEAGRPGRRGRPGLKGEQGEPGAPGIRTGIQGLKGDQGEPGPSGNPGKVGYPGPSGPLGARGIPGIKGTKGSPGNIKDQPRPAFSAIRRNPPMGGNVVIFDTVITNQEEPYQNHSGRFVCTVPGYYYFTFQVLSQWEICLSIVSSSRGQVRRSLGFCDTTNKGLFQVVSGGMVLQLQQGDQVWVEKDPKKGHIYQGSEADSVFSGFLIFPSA
# Sequence of human C1q (P02746 28-253, chain 2 of 3): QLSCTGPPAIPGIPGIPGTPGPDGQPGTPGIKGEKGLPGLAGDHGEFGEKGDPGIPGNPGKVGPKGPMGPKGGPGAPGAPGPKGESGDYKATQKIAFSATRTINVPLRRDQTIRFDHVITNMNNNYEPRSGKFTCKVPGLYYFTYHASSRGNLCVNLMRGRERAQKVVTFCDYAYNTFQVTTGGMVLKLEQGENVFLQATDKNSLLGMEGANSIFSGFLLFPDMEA
# Sequence of human C1q (P02747 29-245, chain 3 of 3): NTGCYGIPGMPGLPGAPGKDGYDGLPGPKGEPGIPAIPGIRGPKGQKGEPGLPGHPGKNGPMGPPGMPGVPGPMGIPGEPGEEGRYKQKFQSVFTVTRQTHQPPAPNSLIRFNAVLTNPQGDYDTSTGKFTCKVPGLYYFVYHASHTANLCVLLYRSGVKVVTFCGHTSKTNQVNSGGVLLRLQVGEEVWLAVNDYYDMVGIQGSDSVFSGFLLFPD
# Experimental: ELISA was performed using 96-well MaxiSorp plates where the wells were coated with human TNFα diluted to 1 μg/mL in PBS. After incubation O/N at 4° C., the plates were blocked with PBS containing 4% skimmed milk for 1 h and washed four times with PBS containing 0.05% Tween-20 (PBS-T). Then, titrated amounts of the anti-TNFα IgG antibodies were diluted in PBS-T, added and incubated for 1 h at RT. After washing using PBS-T, human C1q (0.5 μg/mL) was diluted in 0.1 M Veronal buffer (0.25 mM CaCl₂ and 0.8 mM MgCl₂ pH 7.2), added to the wells and incubated for 1 h. Subsequently, the wells were washed as above before rabbit anti-human C1q diluted 1:5000 in PBS-T was added to the wells and incubated for 1 h. After washing, an HRP-conjugated anti-rabbit IgG from donkey diluted 1:5000 in PBS-T was added. Subsequently, the wells were washed and 100 μL 3,3′,5,5′-Tetramethylbenzidine substrate was added to each well. The absorbance was measured at 620 nm using a Sunrise spectrophotometer.
# CD32a(R) = molecular target: T7, CD32a(R) (UniProt P12318 36-218); assay: SPR (Biacore), His-tagged FcγR captured on anti-His chip, antibody as analyte
# T7 construct: His-tagged; also called Fcγ receptor CD32a(R)
# T7 sequence (looked up): T4 sequence (looked up) with H132R
# Experimental: as §1
# human TNFα [6] = molecular target: T1, human TNFα; assay: cell-based or functional assay
# CD16b(NA2) = molecular target: T8, CD16b(NA2) (UniProt O75015 17-200, limits assumed); assay: SPR (Biacore), His-tagged FcγR captured on anti-His chip, antibody as analyte
# T8 construct: His-tagged
# T8 sequence (O75015 17-200 N65S limits assumed): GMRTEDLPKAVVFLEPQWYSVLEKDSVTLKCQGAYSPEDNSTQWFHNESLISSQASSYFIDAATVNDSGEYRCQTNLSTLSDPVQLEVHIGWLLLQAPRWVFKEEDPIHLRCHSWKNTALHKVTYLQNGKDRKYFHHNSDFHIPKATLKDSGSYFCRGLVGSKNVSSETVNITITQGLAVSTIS
# Experimental: as §1
# CD16a(F) = molecular target: T9, CD16a(F) (UniProt P08637 17-208); assay: as above
# T9 construct: His-tagged
# T9 sequence (P08637 17-208 limits assumed): as the sequence (P08637 17-208 F176V limits assumed) above, with V160F counted along it
# Experimental: as §1
# CD16a(V) [7] = molecular target: T6, CD16a(V); assay: SPR (Biacore), His-tagged FcγR captured; reference not named in the sentence (Ab-wt by Table 5)
# Experimental: Affinity to FcγRs was measured by Biacore. A CM5 chip was prepared using standard amine immobilisation Biacore procedures. Upon insertion of a CM5 chip the system was primed and then normalised with BIA-normalizing solution (Biacore Preventative Maintenance Kit 2). The chip was added to the system with Phosphate Buffered Saline Tween-20 (PBS-T) running buffer; prior to immobilisation the chip surface was primed with three injections of 50 mM NaOH. FcγRs were immobilised on the chip surface using a His-tag capture system. The anti-His tag chip was prepared according to the Biacore kit instructions, with ˜12000 RU's of the antibody deposited on all 4 flow cells. To remove non-covalently bound material from all the chip flow cells, three 30 second 10 mM glycine pH 1.5 washes were performed. The Fcγ receptors were diluted in PBS-T to a range of 0.5-2 μg/mL, with 2.5-5.0 μL injected onto the chip generating capture levels between 60 and 200 RU's. Antibodies were diluted into PBS-T prior to analysis. Single cycle kinetics were used to estimate the steady state affinity. For each single cycle analysis cycle a titration of 5 antibody concentrations were injected over the FcγR ligand and then the dissociation of the complex was measured. The surface was regenerated using the recommended solution, 10 mM glycine pH 1.5 for the anti-His capture surface. […]
Binder,Kd (human TNFα [1]) [nM],koff (human TNFα [1]) [s⁻¹],kon (human TNFα [1]) [M⁻¹ s⁻¹],Kd (CD32b) [nM],Kd (CD64) [nM],Kd (CD32a(H)) [nM],Kd [2] [nM],Kd (CD16a(V) [3]) [nM],Fold change from wt [4] [fold],Fold change from IFX [5] [fold],EC50 (read off the curve) (human C1q) [µg/mL],Kd (CD32a(R)) [nM],IC50 (read off the curve) (human TNFα [6]) [µg/mL],Kd (CD16b(NA2)) [nM],Kd (CD16a(F)) [nM],fold increase in affinity (CD16a(V) [7]) [fold]
B1,0.00413,3.45e-05,8.37e+06,3140,2.92,670,1000,184,–,–,–,–,–,–,–,–
B2,0.0033,2.04e-05,6.22e+06,1210,2.8,780,5.61,280,178,75.8,~0.4,1600,~0.007,1650,2410,–
B3,–,–,5.8e+06,1130,2.93,1870,6.24,33.5,160,68.1,~0.6,1450,~0.007,400,150,5.5
B4,–,–,–,–,–,–,–,–,–,–,~0.5,–,–,–,–,–
